Reference: PMC3409642 (Pharmaceutical research, 2012)

Key:
Test in all cases: not read
Settings in all cases: pH 7.4; 37.0 °C
not read [1] = substrate: C=CCc1ccc(O)c(OC)c1
not read [2] = substrate: CN(C)CCc1c[nH]c2cccc(O)c12
not read [3] = substrate: COC(=O)c1ccc(O)cc1
not read [4] = substrate: Cc1ccc2oc(=O)cc(O)c2c1
not read [5] = substrate: Oc1ccc(-c2ccccc2)cc1

B1: human UGT1A9 (Homo sapiens) (protein)
chain: GKLLVVPMDGSHWFTMRSVVEKLILRGHEVVVVMPEVSWQLGRSLNCTVKTYSTSYTLEDLDREFKAFAHAQWKAQVRSIYSLLMGSYNDIFDLFFSNCRSLFKDKKLVEYLKESSFDAVFLDPFDNCGLIVAKYFSLPSVVFARGILCHYLEEGAQCPAPLSYVPRILLGFSDAMTFKERVRNHIMHLEEHLLCHRFFKNALEIASEILQTPVTEYDLYSHTSIWLLRTDFVLDYPKPVMPNMIFIGGINCHQGKPLPMEFEAYINASGEHGIVVFSLGSMVSEIPEKKAMAIADALGKIPQTVLWRYTGTRPSNLANNTILVKWLPQNDLLGHPMTRAFITHAGSHGVYESICNGVPMVMMPLFGDQMDNAKRMETKGAGVTLNVLEMTSEDLENALKAVINDKSYKENIMRLSSLHKDRPVEPLDLAVFWVEFVMRHKGAPHLRPAAHDLTWYQYHSLDVIGFLLAVVLTVAFITFKCCAYGYRKCLGKKGRVKKAHKSKTH
Km (not read [1]): 25 µM | Vmax (not read [1]): 0.001 µmol/min/mg | Vmax/Km (not read [1]): 40 µL/min/mg | Km (not read [2]): 748 µM | Vmax (not read [2]): 0.00598 µmol/min/mg | Vmax/Km (not read [2]): 8 µL/min/mg | Km (not read [3]): 101 µM | Km (not read [4]): 57.8 µM | Vmax (not read [4]): 0.000225 µmol/min/mg | Vmax/Km (not read [4]): 4 µL/min/mg | Km (not read [5]): 56.2 µM | Vmax (not read [5]): 0.00124 µmol/min/mg | Vmax/Km (not read [5]): 22 µL/min/mg
